# According to patent US20050112698A1 (Bayer, published 2005):
# Tests used:
# human Stem Cell Factor [1] = target: T1, human Stem Cell Factor (human, UniProt P21583 26-189); assay: BIAcore, Affinity Estimation, Fab
# T1 construct: Human SCF was bought from R&D Systems and is called soluble in the BIAcore assay; also called SCF; hSCF
# human Stem Cell Factor [2] = target: T1, human Stem Cell Factor; assay: cell-based or functional assay
# Cynomolgus Monkey SCF [3] = target: T2, Cynomolgus Monkey SCF (cynomolgus monkey, UniProt A0A7N9CAX5 26-189); assay: cell-based or functional assay
# Cynomolgus Monkey SCF [4] = target: T2, Cynomolgus Monkey SCF; assay: competition ELISA: cSCF binding to coated human SCFR, Fab 3.1 µg/ml
# Protocol: The extracts containing Fab were also tested for the ability to inhibit SCF binding to the SCF receptor. ELISA plates were coated overnight with 2 μg/ml human SCFR (R&D Systems, Minneapolis, Minn.) in PBS at 4° C. After washing with TBS-T, the plate was blocked with 5 mg/ml BSA in PBS. The extract was diluted 1/5 in PBS buffer containing 12.5 ng/ml cSCF and 1 mg/ml BSA. After a 1 hr incubation at room temperature, 100 μl was added to the blocked ELISA plate and incubated an additional hour. The plate was washed 5 times with TBS-T, and 100 μl of a 0.4 μg/ml solution of anti-SCF (R&D Systems) in 1 mg/ml BSA in PBS was added. After 1 hour the plate was washed and incubated with anti-Mouse-HRP (Sigma, St. Louis, Mo.). The plate was developed with BM Blue POD substrate (Roche Diagnostics, Chicago, Ill.) and read at 370 nm.
# (§1) TABLE 12 Sequences of the CDR3 Vk1 Region of Selected Antibody Clones with Comparison of koff and SCF Inhibitory Activity The off-rates were determined using a high density surface CM5 chip (5000 RU of immobilized cSCF) on BIAcore and are shown with comparison to the original A2-G8 clone. […] The IC₅₀ in the TF-1 proliferation assay was based on an average of two assays with the exception of the A2-G8-IgG (n = 5).
# Cynomolgus Monkey SCF [5] = target: T2, Cynomolgus Monkey SCF; assay: SPR BIAcore, 5000 RU immobilized cSCF, off-rate ranking
# Protocol: as §1
# Analysis of Fab binding to cSCF was performed by surface plasmon resonance using a BIAcore 2000 (Biacore, Piscataway, N.J.), according to the manufacturer's instructions and a CM5 chip (Biacore) coated with cSCF. For amine coupling, a research grade CM5 chip was activated using the standard NHS/EDC procedure. Cynomologus monkey SCF was diluted to 20 μg/ml in 10 mM NaAcetate, pH 5.0, and a total of 5000 RU's were coupled to channel 2 of the sensor surface. The remaining active sites were quenched by the addition of 1M ethanolamine, pH 8.0. Channel 1 was subjected to the coupling procedure in the absence of protein and was used as a reference surface. Extracts were diluted 1/5 in HBS-EP running buffer and injected for 2 min using a flow rate of 20 μl/min. The surface was regenerated by two consecutive injections of 25 μl, 10 mM glycine, pH 2.5, using a flow rate of 100 μl/min. The koff was calculated from a single concentration of Fab using BIAevaluation software (Biacore).
# Cynomolgus Monkey SCF [6] = target: T2, Cynomolgus Monkey SCF; assay: SPR BIAcore 2000, Fab over 185 RU immobilized cSCF
# Protocol: (§2) Affinity measurements were carried out on a BIAcore 2000 (Biacore) at 25° C. […] Purified Fab's were diluted in HBS-EP running buffer at concentrations ranging from 1.95 to 125 nM. A volume of 100 μl was injected using a flow rate of 50 μl/min in Kinject mode. After a 10 min dissociation, 50 μl of 10 mM Glycine, pH 2.5 and 25 μl of 10 mM Glycine, pH 2.0 was injected using a flow rate of 100 μl/min. All samples were run in duplicate. […] Cynomologus monkey SCF was diluted in HBS-EP running buffer at concentrations ranging from 15.6 to 500 nM and 150 μl injected at a flow rate of 50 μl/min. After a 15 min dissociation, 50 μl of 10 mM Glycine, pH 2.5, and 25 μl of 10 mM Glycine, pH 1.5 was injected using a flow rate of 100 μl/min. All samples were run in duplicate. The data was globally fit to the 1 to 1 binding model using BIAevaluation software. The raw experimental data were corrected for instrumental and bulk solvent artifacts by double referencing using both activated and blocked surfaces as controls.
# (§3) To evaluate the binding properties of anti-SCF Fabs selected from affinity optimization of the CDR3 loop with SCF, the real time interaction was measured using surface plasmon resonance with the BIAcore 2000. […] The improvement in Kd's are primarily governed by a substantial reduction in the off-rate (koff). […] The affinity constants for Fab binding to human SCF were slightly lower than those Kd's for cynomologus monkey SCF. The panning design, with lower antigen concentrations and extensive washing steps, favors off-rate selection. The affinity of the A2-G8 clone in an IgG vector was measured using the IgG immobilized to the surface of the CM5 chip.
# human Stem Cell Factor [7] = target: T1, human Stem Cell Factor; assay: cell-based or functional assay; remark: listed apart in the source
# human Stem Cell Factor [8] = target: T1, human Stem Cell Factor; assay: SPR BIAcore 2000, Fab over 150 RU immobilized hSCF
# Protocol: as §2, §3
# human Stem Cell Factor [9] = target: T1, human Stem Cell Factor; assay: cell-based or functional assay; remark: listed apart in the source
# T1 sequence (P21583 other isoform, or with tags, fused parts or gaps limits assumed): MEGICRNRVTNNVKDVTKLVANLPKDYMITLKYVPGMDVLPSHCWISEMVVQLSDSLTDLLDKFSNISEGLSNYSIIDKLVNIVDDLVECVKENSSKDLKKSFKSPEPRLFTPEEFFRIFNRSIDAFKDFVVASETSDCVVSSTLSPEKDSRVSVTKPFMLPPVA
Binder,Kd (human Stem Cell Factor [1]) [nM],TF-1 Fab assay IC50 (human Stem Cell Factor [2]) [µg/mL],IC50 TF-1 cynoSCF Assay (Cynomolgus Monkey SCF [3]) [µg/mL],% Inhibition SCF Binding ELISA Assay (Cynomolgus Monkey SCF [4]) [%],koff (Cynomolgus Monkey SCF [5]) [s⁻¹],Kd (Cynomolgus Monkey SCF [6]) [nM],koff (Cynomolgus Monkey SCF [6]) [s⁻¹],kon (Cynomolgus Monkey SCF [6]) [M⁻¹ s⁻¹],IC50 TF-1 huSCF Assay (human Stem Cell Factor [7]) [µg/mL],Kd (human Stem Cell Factor [8]) [nM],koff (human Stem Cell Factor [8]) [s⁻¹],kon (human Stem Cell Factor [8]) [M⁻¹ s⁻¹],"TF-1 proliferation IC50, fold lower than the A2-G8 Mab (human Stem Cell Factor [9]) [fold]"
"Fab A2-A1 (Fab, V domains shown) VH: not shown VL: DIQMTQSPSSLSASVGDRVTITCRASQGISSYLAWYQQKPGKAPKLLIYAASSLQSGVPSRFSGSGSGTDFTLTISSLQPEDFATYYCQQYSGMPYTFGQGTKVEIK",57,25,–,–,–,–,–,–,–,–,–,–,–
"Fab A2-D12 (Fab, V domains shown) VH: not shown VL: DIQMTQSPSSLSASVGDRVTITCRASQGIWLYLSWYQQKPGKAPKLLIYAASSLQSGVPSRFSGSGSGTDFTLTISSLQPEDFATYYCQQYSGMPYTFGQGTKVEIK",18,–,–,–,–,–,–,–,–,–,–,–,–
"Fab A2-H8 (Fab, V domains shown) VH: not shown VL: DIQMTQSPSSLSASVGDRVTITCRASQGIIGYLGWYQQKPGKAPKLLIYRASSLQSGVPSRFSGSGSGTDFTLTISSLQPEDFATYYCQQYSGMPYTFGQGTKVEIK",44,25,–,–,–,–,–,–,–,–,–,–,–
"Fab A2-E8 (Fab, V domains shown) VH: not shown VL: DIQMTQSPSSLSASVGDRVTITCRASQGIFKYLAWYQQKPGKAPKLLIYAASSLQSGVPSRFSGSGSGTDFTLTISSLQPEDFATYYCQQYSGMPYTFGQGTKVEIK",17,8,–,–,–,–,–,–,–,–,–,–,–

# Now from value to binder:
Kd (human Stem Cell Factor [1]) [nM],TF-1 Fab assay IC50 (human Stem Cell Factor [2]) [µg/mL],IC50 TF-1 cynoSCF Assay (Cynomolgus Monkey SCF [3]) [µg/mL],% Inhibition SCF Binding ELISA Assay (Cynomolgus Monkey SCF [4]) [%],koff (Cynomolgus Monkey SCF [5]) [s⁻¹],Kd (Cynomolgus Monkey SCF [6]) [nM],koff (Cynomolgus Monkey SCF [6]) [s⁻¹],kon (Cynomolgus Monkey SCF [6]) [M⁻¹ s⁻¹],IC50 TF-1 huSCF Assay (human Stem Cell Factor [7]) [µg/mL],Kd (human Stem Cell Factor [8]) [nM],koff (human Stem Cell Factor [8]) [s⁻¹],kon (human Stem Cell Factor [8]) [M⁻¹ s⁻¹],"TF-1 proliferation IC50, fold lower than the A2-G8 Mab (human Stem Cell Factor [9]) [fold]",Binder
–,–,4.64,70,0.00075,–,–,–,–,–,–,–,–,"Fab A8 (light chain CDR3 variant of A2-G8) (Fab, V domains shown, It carries FLAG and Strep tags) VH: not shown VL: QMTQSPSSLSASVGDRVTITCRASQGIRGYLGWYQQKPGKAPKLLIYSASSLQSGVPSRFSGSGSGTDFTLTISSLQPEDFATYYCCSAGFMPYTFGQGTKVEIKR"
–,–,1.46,70,0.0003,5.4,0.00073,130000,0.19,1.4,0.00027,190000,≥ 6,"Fab D6L (Fab, V domains shown, Light chain CDR3 variant of Fab A2-G8; It carries FLAG and Strep tags) VH: not shown VL: QMTQSPSSLSASVGDRVTITCRASQGIRGYLGWYQQKPGKAPKLLIYSASSLQSGVPSRFSGSGSGTDFTLTISSLQPEDFATYYCGEWLSMPYTFGQGTKVEIKR"
–,–,0.78,85,0.00024,2.6,0.00028,110000,0.17,1.3,0.00022,170000,≥ 6,"Fab F5L (Fab, V domains shown, Light chain CDR3 variant of Fab A2-G8; It carries FLAG and Strep tags) VH: not shown VL: QMTQSPSSLSASVGDRVTITCRASQGIRGYLGWYQQKPGKAPKLLIYSASSLQSGVPSRFSGSGSGTDFTLTISSLQPEDFATYYCSAHGFMPYTFGQGTKVEIKR"
–,–,0.48,75,0.00027,3.6,0.00069,190000,0.09,0.8,0.00024,290000,≥ 6,"Fab D5 (light chain CDR3 variant of A2-G8) (Fab, V domains shown, It carries FLAG and Strep tags) VH: not shown VL: QMTQSPSSLSASVGDRVTITCRASQGIRGYLGWYQQKPGKAPKLLIYSASSLQSGVPSRFSGSGSGTDFTLTISSLQPEDFATYYCASQGWMPYTFGQGTKVEIKR"
–,–,2.07,65,0.00041,4.9,0.00104,210000,0.14,1.6,0.0005,320000,≥ 6,"Fab B1 (Fab, V domains shown, It carries FLAG and Strep tags) VH: not shown VL: QMTQSPSSLSASVGDRVTITCRASQGIRGYLGWYQQKPGKAPKLLIYSASSLQSGVPSRFSGSGSGTDFTLTISSLQPEDFATYYCAEYIRMPYTFGQGTKVEIKR"
–,–,5.45,70,0.00048,4.3,0.00079,190000,2.01,1.7,0.0005,300000,–,"Fab B9 (Fab, V domains shown, It carries FLAG and Strep tags; also called B9L) VH: not shown VL: QMTQSPSSLSASVGDRVTITCRASQGIRGYLGWYQQKPGKAPKLLIYSASSLQSGVPSRFSGSGSGTDFTLTISSLQPEDFATYYCAGTGFMPYTFGQGTKVEIKR"
–,–,1.65,68,0.00044,5.5,0.00087,160000,0.38,1.8,0.00046,250000,≥ 6,"Fab A12 (Fab, V domains shown, Light chain CDR3 variant of Fab A2-G8; It carries FLAG and Strep tags) VH: not shown VL: QMTQSPSSLSASVGDRVTITCRASQGIRGYLGWYQQKPGKAPKLLIYSASSLQSGVPSRFSGSGSGTDFTLTISSLQPEDFATYYCGEWAYMPYTFGQGTKVEIKR"
